According to publication PMC7498314, “Microcephaly family protein MCPH1 stabilizes RAD51 filaments” (Nucleic Acids Research, 2020):

B1: Strep-tagged mouse RAD51 (natural protein, UniProt Q08297 1-339, looked up)
chain: MAMQMQLEASADTSVEEESFGPQPISRLEQCGINANDVKKLEEAGYHTVEAVAYAPKKELINIKGISEAKADKILTEAAKLVPMGFTTATEFHQRRSEIIQITTGSKELDKLLQGGIETGSITEMFGEFRTGKTQICHTLAVTCQLPIDRGGGEGKAMYIDTEGTFRPERLLAVAERYGLSGSDVLDNVAYARGFNTDHQTQLLYQASAMMVESRYALLIVDSATALYRTDYSGRGELSARQMHLARFLRMLLRLADEFGVAVVITNQVVAQVDGAAMFAADPKKPIGGNIIAHASTTRLYLRKGRGETRICKIYDSPCLPEAEAMFAINADGVGDAKD
notes: mouse RAD51 recombinase; (His)6-tagged mouse RAD51 was used in the Benzonase protection and TPM assays; also called RAD51 recombinase
B2: (His)6-SUMO-tagged mouse MCPH1 fragment, amino acids 628-822 (C-terminus, containing BRCT2 and BRCT3) (domain or fragment, UniProt Q7TT79 628-822, looked up)
chain: EKEEKPTRTLVMTSMPSEKQTLIIQVVSTLKGFSFAPEVCETTTHVLVGKSARTLNVLMGIARGCWILSYEWVLLSLELGHWISEEPFELSETFPAAPICRLERHLSTQQYQGTLFANQPKMFIAPASSPPRAKLCELVLLCGGQVSPAPQLASLIIGPYKGKKKARIQYLSEKWVLDSITQHKICDFNNYQLLQ
notes: mouse MCPH1, residues 628-822, containing BRCT2 and BRCT3; also called truncated MCPH1 variant; source: E. coli BL21*(DE3)(pLys), purified (Ni-NTA); not shown: His6, N-terminal, kept; SUMO, N-terminal, kept
B3: Strep-tagged mouse DMC1 (natural protein, UniProt Q61880 1-340, looked up)
chain: MKEDQVVQEESGFQDDEESLFQDIDLLQKHGINMADIKKLKSVGICTIKGIQMTTRRALCNVKGLSEAKVEKIKEAANKLIEPGFLTAFQYSERRKMVFHITTGSQEFDKLLGGGIESMAITEAFGEFRTGKTQLSHTLCVTAQLPGTGGYSGGKIIFIDTENTFRPDRLRDIADRFNVDHEAVLDNVLYARAYTSEHQMELLDYVAAKFHEEAGIFKLLIIDSIMALFRVDFSGRGELAERQQKLAQMLSRLQKISEEYNVAVFVTNQMTADPGATMTFQADPKKPIGGHILAHASTTRISLRKGRGELRIAKIYDSPEMPENEATFAITAGGIGDAKE
notes: mouse DMC1, the meiotic RAD51 homolog; (His)6-tagged mouse DMC1 was used in the Benzonase protection assay; also called meiotic recombinase DMC1
B4: (His)6-SUMO-tagged mouse MCPH1 fragment, amino acids 1-190 (N-terminus, containing BRCT1) (domain or fragment, UniProt Q7TT79 1-190, looked up)
chain: MEASGGVGGAFLKDVVAYVEVWSSKGTENYSRTFAKQLEDMGATVSKTLNKQVTHVIFKDGYQSTWDKAQKTGAKLVSVLWVEKCRMAGALVDESLFPAVNTDEHLPNLSRKKHKCMQPKDFILKTPENDKRLQKKFEKMAEELQRQKAALDDDVPVLLFESPRSLVYSSPVNVMKRRLQDMKEKRENLS
notes: mouse MCPH1, residues 1-190, containing BRCT1; also called truncated MCPH1 variant; source: E. coli BL21*(DE3)(pLys), purified (Ni-NTA); not shown: His6, N-terminal, kept; SUMO, N-terminal, kept
B5: (His)6-SUMO-tagged mouse MCPH1 fragment, amino acids 287-383 (central region containing the nuclear localization signal) (domain or fragment, UniProt Q7TT79 287-383, looked up)
chain: DSPSKESINCQKDATGAVADSERKQAAGVSQGVPDEKLCLSPTMSIIEEHQVRLGPKNSSAKRKRAADLGSSPKGKLKKRYKRKSALAIQLFKSDQS
notes: mouse MCPH1, residues 287-383, containing the nuclear localization signal; also called truncated MCPH1 variant; source: E. coli BL21*(DE3)(pLys), purified (Ni-NTA); not shown: His6, N-terminal, kept; SUMO, N-terminal, kept
B6: (His)6-SUMO-tagged mouse MCPH1 fragment, amino acids 384-476 (central region containing a Condensin-II binding region) (domain or fragment, UniProt Q7TT79 384-476, looked up)
chain: PPSTIRLIPGTPDVEASSYEDYFSPDNLKERNSERLPPEAQQLASPSLFHCRGLSKWERRNMLEMCDFTCIGEKHRSISSISDLISKSASSLE
notes: also called truncated MCPH1 variant; source: E. coli BL21*(DE3)(pLys), purified (Ni-NTA); not shown: His6, N-terminal, kept; SUMO, N-terminal, kept
B7: Oligo 3 ssDNA (ssDNA)
DNA: GCCGTCGCATGACGCTGCCGAATTCTACCACGCTACTAGGGTGCCTTGCTAGGACATCTTTGCCCACCTGCAGGTTCACCCCGTCCCTGGC
B8: D-loop (Oligo 2+3+4) (mixed)
DNA 1: B7 DNA
DNA 2: GCCAGGGACGGGGTGAACCTGCAGGTGGGCGGCTGCTCATCGTAGGTTAGTATCGACCTATTGGTAGAATTCGGCAGCGTCATGCGACGGC
DNA 3: AAGATGTCCTAGCAAGGCACCCTAGTAGC
B9: dsDNA (Oligo 5+9) (dsDNA)
DNA 1: ACGCTGCCGAATTCTACCAGTGCCTTGCTAGGACATCTTTGCCCACCTGCAGGTTCACCC
DNA 2: GGGTGAACCTGCAGGTGGGCAAAGATGTCCTAGCAAGGCACTGGTAGAATTCGGCAGCGT
B10: 3'-overhang DNA (Oligo 5+10) (mixed)
DNA 1: B9 DNA 1
DNA 2: AGGCACTGGTAGAATTCGGCAGCGT
B11: Holliday junction (Oligo 5+6+7+8) (structured_DNA)
DNA 1: B9 DNA 1
DNA 2: GGGTGAACCTGCAGGTGGGCAAAGATGTCCATCTGTTGTAATCGTCAAGCTTTATGCCGT
DNA 3: ACGGCATAAAGCTTGACGATTACAACAGATCATGGAGCTGTCTAGAGGATCCGACTATCG
DNA 4: CGATAGTCGGATCCTCTAGACAGCTCCATGTAGCAAGGCACTGGTAGAATTCGGCAGCGT

Assays:
[1] = biological target: T1, (His)6-MBP-tagged mouse MCPH1 (Microcephalin 1) (mouse, UniProt Q7TT79 1-822); assay: pull-down; (His)6-MBP-MCPH1 (4 μg) incubated with recombinase (1 μg) in 30 μl buffer D (25 mM Tris-HCl pH 7.5, 10% glycerol, 0.01% Igepal, 100 mM KCl, 10 mM imidazole) 30 min at 37°C with Benzonase and 2 mM MgCl2; captured on Talon resin via the (His)6 tag; SDS-PAGE with Coomassie Blue staining; conditions: both partners purified
T1 construct: mouse MCPH1 (microcephalin 1), wild type, cDNA NM_173189.2; calculated molecular mass of the untagged protein 90,372 Da; A PreScission protease site lies between the (His)6-MBP tag and MCPH1; the uncleaved, tagged protein was used in the pull-downs; Tag-free MCPH1 (tag cleaved) was used in the Benzonase protection and TPM assays; also called (His)6-MBP-MCPH1; wild-type MCPH1; source: Expi293F …
T1 sequence (looked up): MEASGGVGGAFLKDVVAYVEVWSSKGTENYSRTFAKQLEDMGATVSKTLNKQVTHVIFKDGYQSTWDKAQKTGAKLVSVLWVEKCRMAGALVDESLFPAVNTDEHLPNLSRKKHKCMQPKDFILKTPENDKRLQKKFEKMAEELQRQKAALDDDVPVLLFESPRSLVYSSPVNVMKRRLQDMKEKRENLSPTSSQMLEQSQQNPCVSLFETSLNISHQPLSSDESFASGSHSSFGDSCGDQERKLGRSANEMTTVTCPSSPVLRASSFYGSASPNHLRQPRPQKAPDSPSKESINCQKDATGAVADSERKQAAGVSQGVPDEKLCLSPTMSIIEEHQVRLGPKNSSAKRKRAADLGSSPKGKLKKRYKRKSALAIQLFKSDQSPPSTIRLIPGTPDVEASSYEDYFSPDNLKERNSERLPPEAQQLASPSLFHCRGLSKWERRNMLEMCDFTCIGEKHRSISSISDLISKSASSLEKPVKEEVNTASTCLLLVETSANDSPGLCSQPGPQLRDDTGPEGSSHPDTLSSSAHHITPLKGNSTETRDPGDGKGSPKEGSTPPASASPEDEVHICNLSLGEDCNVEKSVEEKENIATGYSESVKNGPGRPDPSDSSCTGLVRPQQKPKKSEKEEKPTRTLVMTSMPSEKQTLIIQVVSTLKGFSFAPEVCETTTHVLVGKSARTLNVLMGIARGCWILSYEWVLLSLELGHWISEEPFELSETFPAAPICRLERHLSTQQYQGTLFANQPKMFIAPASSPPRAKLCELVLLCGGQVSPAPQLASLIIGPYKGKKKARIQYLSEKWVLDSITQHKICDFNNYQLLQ

Strep-tagged mouse DMC1 = biological target: B3; assay: pull-down; (His)6-SUMO-tagged MCPH1 fragments (2 μg) with Strep-tagged RAD51 or DMC1 (2 μg), same procedure (buffer D, Benzonase, Talon resin); SDS-PAGE and western blot with RAD51 or DMC1 antibody; conditions: both partners purified
Strep-tagged mouse RAD51 = biological target: B1; assay: as above; conditions: both partners purified
MCPH1 (tag-free) = biological target: T2, MCPH1 (tag-free) (Mus musculus, UniProt Q7TT79 1-822); assay: EMSA; 50 mM KCl; EMSA: 35 mM Tris-HCl pH 7.5, 1 mM DTT, 50 mM KCl, 0.1 ug/ul BSA, 37 C, 5 min; DNA 750 nM (oligos) or 6 uM (PhiX174) nucleotides/bp. TPM: 100 mM KCl (150 mM high salt); conditions: protein: recombinant, tags: none (His6-MBP removed with PreScission)
T2 sequence: T1 sequence (looked up)

Binder	binding result (Strep-tagged mouse DMC1)	binding result (Strep-tagged mouse RAD51)	other results
B1			binding result [1]: binds
B2	binds	binds	
B3			binding result [1]: binds
B4	binds	binds	
B5	binds	binds	
B6	binds	binds	
B7			binding result (MCPH1 (tag-free); label: 5'-32P, single strand): binds
B8			binding result (MCPH1 (tag-free); label: 5'-32P on Oligo 3, D-loop, Oligo 2 and 3 pair at both ends, Oligo 4 pairs in the bubble of Oligo 3): binds
B9			binding result (MCPH1 (tag-free); label: 5'-32P on Oligo 5, blunt): binds
B10			binding result (MCPH1 (tag-free); label: 5'-32P on Oligo 5, 3' overhang 35 nt): binds
B11			binding result (MCPH1 (tag-free); label: 5'-32P on Oligo 5, four-way junction 1:2 2:3 3:4 4:1): binds
